How the values were obtained:
[1] = molecular target: bovine Hsc70, recombinant wild type (bovine, UniProt P19120 1-650); assay: pull-down
[2] = molecular target: bovine Hsc70 R447H, recombinant mutant (bovine, UniProt P19120 1-650, R447H); assay: pull-down
Sequence of bovine Hsc70 R447H, recombinant mutant (P19120 whole entry R447H): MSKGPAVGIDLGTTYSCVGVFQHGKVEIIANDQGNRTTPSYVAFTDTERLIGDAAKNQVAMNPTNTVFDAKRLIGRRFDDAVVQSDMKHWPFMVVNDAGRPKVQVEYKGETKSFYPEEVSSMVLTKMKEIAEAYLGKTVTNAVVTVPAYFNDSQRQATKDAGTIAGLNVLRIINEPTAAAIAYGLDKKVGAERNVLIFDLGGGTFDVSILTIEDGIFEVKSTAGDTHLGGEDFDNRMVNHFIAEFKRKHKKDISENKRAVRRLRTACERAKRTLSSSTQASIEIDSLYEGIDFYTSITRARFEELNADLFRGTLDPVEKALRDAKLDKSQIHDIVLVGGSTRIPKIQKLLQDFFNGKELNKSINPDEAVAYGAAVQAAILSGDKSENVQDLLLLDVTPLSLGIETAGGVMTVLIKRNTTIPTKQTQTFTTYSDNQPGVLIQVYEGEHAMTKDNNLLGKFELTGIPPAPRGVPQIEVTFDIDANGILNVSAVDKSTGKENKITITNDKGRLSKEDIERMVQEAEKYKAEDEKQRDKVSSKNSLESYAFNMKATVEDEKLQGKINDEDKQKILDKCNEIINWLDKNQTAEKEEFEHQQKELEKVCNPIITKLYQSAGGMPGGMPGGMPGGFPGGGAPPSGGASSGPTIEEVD

Sequence of bovine Hsc70, recombinant wild type (P19120 whole entry): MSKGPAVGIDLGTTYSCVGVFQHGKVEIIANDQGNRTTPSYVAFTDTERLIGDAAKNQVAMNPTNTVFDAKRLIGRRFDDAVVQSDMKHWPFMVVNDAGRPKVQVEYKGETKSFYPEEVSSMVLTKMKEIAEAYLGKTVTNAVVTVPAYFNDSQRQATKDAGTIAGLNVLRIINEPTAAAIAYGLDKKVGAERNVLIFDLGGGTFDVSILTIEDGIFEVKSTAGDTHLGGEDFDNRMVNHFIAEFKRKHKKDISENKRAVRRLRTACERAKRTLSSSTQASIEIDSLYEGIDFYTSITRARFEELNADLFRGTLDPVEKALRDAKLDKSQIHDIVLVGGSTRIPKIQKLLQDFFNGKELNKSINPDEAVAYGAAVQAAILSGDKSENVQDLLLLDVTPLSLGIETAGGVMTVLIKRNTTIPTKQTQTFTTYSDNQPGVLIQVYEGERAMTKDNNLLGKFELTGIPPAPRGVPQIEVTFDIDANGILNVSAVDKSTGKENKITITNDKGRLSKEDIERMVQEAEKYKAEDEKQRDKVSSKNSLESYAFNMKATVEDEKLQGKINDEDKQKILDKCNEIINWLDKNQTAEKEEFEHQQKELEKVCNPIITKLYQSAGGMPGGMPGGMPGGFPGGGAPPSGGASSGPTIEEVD

binding result [1]: binds
binding result [2]: binds
B1: GST-J^aux, J-domain of bovine auxilin (residues 813-910) fused to GST (domain or fragment, UniProt Q27974 813-910, looked up)
chain: DPEKLKILEWIEGKERNIRALLSTMHTVLWAGETKWKPVGMADLVTPEQVKKVYRKAVLVVHPDKATGQPYEQYAKMIFMELNDAWSEFENQGQKPLY

From paper PMC2173062 (The Journal of Cell Biology, 2002)
